Drawing on paper PMC8422075 (EMBO Molecular Medicine, 2021), this text covers Kd for 1 molecule.

The test addresses T1, Human LAG3_(23–434) (human, UniProt P18627 23-434, fluorescently labelled (fluorophore and site not named)).
T1 construct: Used only in the microfluidic diffusional sizing; also called labelled LAG3; source: bought: BonOpusBio (#CJ91)
T1 sequence (looked up): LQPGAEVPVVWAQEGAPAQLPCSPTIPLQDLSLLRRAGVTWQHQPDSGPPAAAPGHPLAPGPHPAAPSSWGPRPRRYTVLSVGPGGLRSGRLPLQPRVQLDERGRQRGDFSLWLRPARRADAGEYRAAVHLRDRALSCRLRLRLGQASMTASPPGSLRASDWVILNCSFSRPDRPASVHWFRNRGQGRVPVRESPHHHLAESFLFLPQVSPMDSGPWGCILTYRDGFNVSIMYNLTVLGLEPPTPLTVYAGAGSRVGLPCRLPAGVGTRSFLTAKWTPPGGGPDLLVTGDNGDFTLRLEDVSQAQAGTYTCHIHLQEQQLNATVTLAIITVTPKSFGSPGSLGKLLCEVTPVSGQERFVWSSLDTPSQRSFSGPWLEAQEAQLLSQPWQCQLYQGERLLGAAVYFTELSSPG
Nature of the test: microfluidic diffusional sizing; fluorescently labelled protein (10 nM-10 µM) in solution, unlabelled ligand varied; PBS with 0.01% Tween-20; 60 min at room temperature; hydrodynamic radius read out; KD from Langmuir binding isotherm. Conditions: both partners purified.

B1: FGL1 Protein, Human, Recombinant (ligand, UniProt Q08830 23-312, looked up)
chain: LEDCAQEQMRLRAQVRLLETRVKQQQVKIKQLLQENEVQFLDKGDENTVIDLGSKRQYADCSEIFNDGYKLSGFYKIKPLQSPAEFSVYCDMSDGGGWTVIQRRSDGSENFNRGWKDYENGFGNFVQKHGEYWLGNKNLHFLTTQEDYTLKIDLADFEKNSRYAQYKNFKVGDEKNFYELNIGEYSGTAGDSLAGNFHPEVQWWASHQRMKFSTWDRDHDNYEGNCAEEDQSGWWFNRCHSANLNGVYYSGPYTAKTDNGIVWYTWHGWWYSLKSVVMKIRPNDFIPNVI
notes: Fibrinogen-like protein 1, human, recombinant; source: bought: Sino Biological (13484‐H08B)
One may read the Kd as the free concentration of one partner at which half of the binding sites on the other are occupied at equilibrium, for simple one-to-one binding. A high value points to weaker binding. B1: the Kd is 232 ± 79 nM.
